B1: Hu-αD11 (humanized variant of the αD11 anti-NGF antibody) (antibody, V domains shown)
VH: EVQLVESGGGLVQPGGSLRLSCAASGFSLTNNNVNWVRQAPGKGLEWVGGVWAGGATDYNSALKSRFTISRDNSKNTAYLQMNSLRAEDTAVYYCARDGGYSSSTLYAMDAWGQGTLVTVSS
VL: DIQMTQSPSSLSASVGDRVTITCRASEDIYNALAWYQQKPGKAPKLLIYNTDTLHTGVPSRFSGSGSGTDYTLTISSLQPEDFATYFCQHYFHYPRTFGQGTKVEIK
notes: also called Hu-alphaD11; Hu-aD11
B2: αD11 anti-NGF antibody (antibody, V domains shown)
VH: QVQLKESGPGLVQPSQTLSLTCTVSGFSLTNNNVNWVRQATGRGLEWMGGVWAGGATDYNSALKSRLTITRDTSKSQVFLKMHSLQSEDTATYYCARDGGYSSSTLYAMDAWGQGTTVTVSA
VL: DIQMTQSPASLSASLGETVTIECRASEDIYNALAWYQQKPGKSPQLLIYNTDTLHTGVPSRFSGSGSGTQYSLKINSLQSEDVASYFCQHYFHYPRTFGGGTKLELK
notes: Rat monoclonal antibody purified from hybridoma supernatant; the constant regions are not; also called alphaD11; aD11

Tests used:
[1] = biological target: T1, recombinant mouse proNGF (rm-proNGF) (mouse, UniProt P01139 19-241); assay: SPR (BIAcore), antibody immobilized
T1 sequence (P01139 19-241): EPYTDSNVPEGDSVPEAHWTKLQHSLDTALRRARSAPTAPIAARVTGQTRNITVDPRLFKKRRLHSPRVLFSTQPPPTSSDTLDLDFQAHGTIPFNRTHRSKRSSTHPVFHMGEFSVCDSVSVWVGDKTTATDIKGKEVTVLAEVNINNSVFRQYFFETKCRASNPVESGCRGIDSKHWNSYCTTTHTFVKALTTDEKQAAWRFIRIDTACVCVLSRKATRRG

[2] = biological target: T1, recombinant mouse proNGF (rm-proNGF); assay: SPR (BIAcore 2000), antibody amine-coupled on CM5 chip (3000 RU), rm-proNGF injected, kinetic analysis
Procedure: The injected concentrations of the rm-proNGF are indicated on top of each curve.
(§1) Experiments were performed on CM5 chips with amine coupling, using a BIAcore 2000 machine. Coupling was performed with a specific kit purchased at BIAcore and the coupling reaction was carried out according to manufacturer's instructions.
(§2) Anti-NGF antibodies were immobilized on chip, while mouse NGF (m-NGF, Alomone) or recombinant mouse proNGF (rm-proNGF) were injected at decreasing concentrations to obtain binding curves.

[3] = biological target: T2, mouse NGF (m-NGF, Alomone) (mouse, UniProt P01139 122-241); assay: SPR (BIAcore 2000), antibody amine-coupled on CM5 chip, m-NGF injected
T2 construct: mature; Commercial m-NGF
T2 sequence (P01139 122-241 limits assumed): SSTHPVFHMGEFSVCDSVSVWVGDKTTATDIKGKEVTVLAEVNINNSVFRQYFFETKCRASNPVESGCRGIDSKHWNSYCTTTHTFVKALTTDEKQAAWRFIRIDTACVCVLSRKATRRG
Procedure: For m-NGF binding, the immobilization of the antibody was of 3000 resonance units (RU) in the experiment of panel A and of 6000 RU in the experiment of panel B. The injected concentrations of the m-NGF are indicated on top of each curve. From a complete analysis of the data, the affinity parameters were evaluated, and resulted to be the following.
as §1, §2

Row | Binder | binding result [1] | Ka [2] | Kd [2] | Kd [3]
1 | B1 | binds | – | – | –
2 | B2 | – | 1.2e+09 M⁻¹ | 1.9 nM | 0.0028 nM
